Article PMC11748629, “Unidirectional MCM translocation away from ORC drives origin licensing” (Nature Communications, 2025)

T1: Mcm2 (Saccharomyces cerevisiae, UniProt P29469 1-868)
T1 construct: Mcm2, S. cerevisiae; Subunit of m7, written alone for the contacts seen in OC1M^Mcm5RA; also called Mcm2 subunit of MCM; source: S. cerevisiae strain yGC226, purified as a subunit of MCM-Cdt1
T1 sequence: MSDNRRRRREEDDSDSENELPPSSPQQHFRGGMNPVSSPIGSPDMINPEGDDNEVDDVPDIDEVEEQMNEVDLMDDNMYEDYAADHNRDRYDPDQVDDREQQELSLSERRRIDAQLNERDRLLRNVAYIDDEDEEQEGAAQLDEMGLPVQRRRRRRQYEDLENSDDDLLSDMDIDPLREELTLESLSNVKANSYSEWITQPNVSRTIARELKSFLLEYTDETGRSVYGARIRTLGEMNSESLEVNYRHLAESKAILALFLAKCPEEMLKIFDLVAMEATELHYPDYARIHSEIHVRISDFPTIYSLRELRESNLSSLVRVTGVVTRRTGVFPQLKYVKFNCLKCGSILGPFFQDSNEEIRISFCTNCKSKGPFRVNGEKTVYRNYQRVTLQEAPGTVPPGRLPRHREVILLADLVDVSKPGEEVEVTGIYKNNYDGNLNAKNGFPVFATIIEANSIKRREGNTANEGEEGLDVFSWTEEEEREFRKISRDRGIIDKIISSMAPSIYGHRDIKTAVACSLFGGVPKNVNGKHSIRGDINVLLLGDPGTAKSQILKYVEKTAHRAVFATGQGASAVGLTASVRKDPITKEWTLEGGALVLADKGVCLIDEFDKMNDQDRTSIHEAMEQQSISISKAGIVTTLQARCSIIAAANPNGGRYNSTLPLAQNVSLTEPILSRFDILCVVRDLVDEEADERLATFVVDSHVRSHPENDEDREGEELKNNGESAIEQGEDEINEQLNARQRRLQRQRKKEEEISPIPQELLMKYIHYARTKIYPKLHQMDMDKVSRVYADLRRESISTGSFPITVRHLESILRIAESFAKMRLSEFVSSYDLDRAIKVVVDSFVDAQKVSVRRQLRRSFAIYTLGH

B1: Orc3 (natural protein, Saccharomyces cerevisiae)
chain: MSDLNQSKKMNVSEFADAQRSHYTVYPSLPQSNKNDKHIPFVKLLSGKESEVNVEKRWELYHQLHSHFHDQVDHIIDNIEADLKAEISDLLYSETTQKRRCFNTIFLLGSDSTTKIELKDESSRYNVLIELTPKESPNVRMMLRRSMYKLYSAADAEEHPTIKYEDINDEDGDFTEQNNDVSYDLSLVENFKRLFGKDLAMVFNFKDVDSINFNTLDNFIILLKSAFKYDHVKISLIFNINTNLSNIEKNLRQSTIRLLKRNYHKLDVSSNKGFKYGNQIFQSFLDTVDGKLNLSDRFVEFILSKMANNTNHNLQLLTKMLDYSLMSYFFQNAFSVFIDPVNVDFLNDDYLKILSRCPTFMFFVEGLIKQHAPADEILSLLTNKNRGLEEFFVEFLVRENPINGHAKFVARFLEEELNITNFNLIELYHNLLIGKLDSYLDRWSACKEYKDRLHFEPIDTIFQELFTLDNRSGLLTQSIFPSYKSNIEDNLLSWEQVLPSLDKENYDTLSGDLDKIMAPVLGQLFKLYREANMTINIYDFYIAFRETLPKEEILNFIRKDPSNTKLLELAETPDAFDKVALILFMQAIFAFENMGLIKFQSTKSYDLVEKCVWRGI
notes: Orc3, S. cerevisiae; Subunit of m1, written alone for the contacts seen in the structures; also called Orc3 subunit of ORC; source: S. cerevisiae strain ySD-ORC, purified as a subunit of ORC
B2: Mcm5 R549A (natural protein, Saccharomyces cerevisiae)
chain: MSFDRPEIYSAPVLQGESPNDDDNTEIIKSFKNFILEFRLDSQFIYRDQLRNNILVKNYSLTVNMEHLIGYNEDIYKKLSDEPSDIIPLFETAITQVAKRISILSRAQSANNNDKDPENTSMDTDSLLLNSLPTFQLILNSNANQIPLRDLDSEHVSKIVRLSGIIISTSVLSSRATYLSIMCRNCRHTTSITINNFNSITGNTVSLPRSCLSTIESESSMANESNIGDESTKKNCGPDPYIIIHESSKFIDQQFLKLQEIPELVPVGEMPRNLTMTCDRYLTNKVIPGTRVTIVGIYSIYNSKNGAGSGRSGGGNGGSGVAIRTPYIKILGIQSDVETSSIWNSVTMFTEEEEEEFLQLSRNPKLYEILTNSIAPSIFGNEDIKKAIVCLLMGGSKKILPDGMRLRGDINVLLLGDPGTAKSQLLKFVEKVSPIAVYTSGKGSSAAGLTASVQRDPMTREFYLEGGAMVLADGGVVCIDEFDKMRDEDRVAIHEAMEQQTISIAKAGITTVLNSRTSVLAAANPIYGRYDDLKSPGDNIDFQTTILSAFDMIFIVKDDHNEERDISIANHVINIHTGNANAMQNQQEENGSEISIEKMKRYITYCRLKCAPRLSPQAAEKLSSNFVTIRKQLLINELESTERSSIPITIRQLEAIIRITESLAKLELSPIAQERHVDEAIRLFQASTMDAASQDPIGGLNQASGTSLSEIRRFEQELKRRLPIGWSTSYQTLRREFVDTHRFSQLALDKALYALEKHETIQLRHQGQNIYRSGV
notes: Mcm5, S. cerevisiae; Subunit of m7, written alone for the contacts seen in OC1M^Mcm5RA; also called Mcm5RA; source: S. cerevisiae strain yGC226, purified as a subunit of MCM-Cdt1

Legend:
[1] = molecular target: B2; test: cryo-EM structure; OC1M^Mcm5RA: 30 nM MH-ARS1-MH DNA, 60 nM ORC, 90 nM Cdc6, 60 nM MCM-Cdt1 (Mcm5 R549A), 2 mM ATP; same buffer; 30 °C, 30 min; conformer 1 at 3.7 Å, conformer 2 at 3.4 Å (Orc1 ATPase domain seen only in conformer 1); conditions: both partners purified
[2] = molecular target: T1, Mcm2; test: as above; conditions: both partners purified

Binder | binding result [1] | binding result [2]
B1 | binds | 
B2 |  | binds
